Source: the RNAGym collection of RNA variant scans (doi:10.1101/gr.219683.116)

B1: mRNA-splicing (parent)
chain: AGUUGCUGCUGGGAGCUCCAGCACAGUGAAAUGGACAGAAGGGCAGAGCAA

Variants of: B1
Assay: exon inclusion enrichment index; higher = more inclusion; WT1 exon 5 minigene, HEK293

Row | Variant | exon inclusion enrichment index
1 | G5A C6G U7G C9A G28U A29C | 0.000797
2 | C6A U7C C9A U10C A31G U32G | 2.7
3 | G5A C6U U7A G8U C9A G11U G12A | 0.00404
4 | G5U C6A U7A G8U C9A | 0.0741
5 | G33C | 0.179
6 | C6A U7C C9A U10C C22G A23U | 0.87
7 | G5A U7C G8A U10C C16A U17A | 2.05
8 | G5U G8U C9U A25G G26U | 0.38
9 | C6A U7A C9A U10A G11U G12U | 1.53
10 | G5A C6U U7A G8U C9A G13U A14C | 0.0467
11 | G5C C6G U7C U10C A30G A31C | 0.674
12 | G2U U3A C6A U7C C9A U10C | 4.33
13 | C6A U7C C9A U10C C22U A23C | 2.11
14 | G5A C6U U7A G8U C9A G38U | 0.0207
15 | G5C C6A U7C G8A U10A G28U A29C | 0.0517
16 | C6A U7C C9A U10C C44A | 4.44
17 | G5A C6U U7A G8U C9A C24U A25C | 0.546
18 | G5C C6G U7C U10C U27C | 4.97
19 | G13C A14G | 0.42
20 | G5A C6G U7G C9A G38U A39U | 0.000926
21 | G5U C6A U7G C9A | 0.0473

Row | Variant | exon inclusion enrichment index
22 | C6A U7A C9A U10A C36U | 0.122
23 | G5A C6U U7A G8U C9A A35C | 0.00811
24 | C6A U7A C9A U10A U17C C18U | 0.491
25 | G11C G12U | 0.467
26 | G5A U7C G8A U10C G38C A39C | 2.25
27 | G5C C6G U7C U10C G46C A47U | 2.37
28 | C6A U7C C9A U10C G28U A29G | 3.18
29 | G5C C6G U7C C9U | 2.47
30 | G5A C6G U7G C9A G46A | 0.00583
31 | C6A U7C C9A U10C G42U G43A | 3.84
32 | G5C C6G U7C U10C G38A A39G | 2.72
33 | G5C C6G U7C U10C G38A A39C | 2.65
34 | C6A U7C C9A U10C A45U G46C | 2.51
35 | C6A U7A C9A U10A A31U U32A | 0.0674
36 | G5A C6G G8U C9U | 0.00331
37 | C6A U7C C9A U10C G11U G12U | 1.57
38 | C6A U7A C9A U10A A39G | 0.404
39 | G5A C6U U7A G8U C9A A39G A40G | 0.00821
40 | C6A U7A C9A U10A G28A | 0.174
41 | C6A U7C C9A U10C G12U | 2.7
42 | G5C C6G U7C U10C G15C C16G | 3.66

Row | Variant | exon inclusion enrichment index
43 | C6A U7A C9A U10A U32C G33C | 1.09
44 | C6G U7A G8U C9A | 0.349
45 | C6A U7C C9A U10C U17A | 3.36
46 | C6A U7A C9A U10A A39U A40U | 0.184
47 | G5A C6U U7A G8U C9A U27A G28A | 0.065
48 | G5C C6A U7C G8A U10A G43A C44G | 0.71
49 | C6A U7A C9A U10A G41A G42A | 0.559
50 | C6A U7A C9A U10A G41A G42C | 1.25
51 | G5A C6G U7G C9A G34C A35U | 0.00103
52 | G5C C6A U7C G8A U10A A39U A40G | 0.0214
53 | G5U G8U C9U C36U | 0.0293
54 | C6A U7A C9A U10A G21U C22A | 0.136
55 | G5A U7C G8A U10C A40U | 1.97
56 | G5U G8U C9U A47G G48C | 0.0267
57 | G5C C6U G8A U10A | 0.0597
58 | G2U U3C C6A U7A C9A U10A | 2.31
59 | G5A U7C G8A U10G | 1.28
60 | G5U G8U C9U C22A | 0.117
61 | C24G A25G | 0.0325
62 | C6A U7C C9A U10C A14C G15U | 2.32
63 | C6A U7C C9A U10C A31U | 3.04

Row | Variant | exon inclusion enrichment index
64 | U3A U4C G5U G8U C9U | 0.407
65 | G5C C6U G8C C9U U10C C44A A45U | 4.04
66 | G5C C6A U7C G8A U10A C16U U17C | 0.0203
67 | G5A C6U U7A G8U C9A G34U A35U | 0.007
68 | G5U G8U C9U A20C G21A | 0.0355
69 | G5A U7C G8A U10C U27A G28A | 2.27
70 | G5A U7C G8A C9U U10C | 2.24
71 | U3A U4G | 0.0422
72 | G5A C6G U7G C9A A37C G38U | 0.000751
73 | C6A U7A C9A U10A C18U C19G | 0.119
74 | C6A U7A C9A U10A A39G A40G | 0.0665
75 | C6A U7A C9A U10A A47G G48C | 0.251
76 | C6G U7C G8A U10C | 2.05
77 | G5U G8U C9U C19G A20C | 0.13
78 | G5C C6U G8C C9U U10G | 1.12
79 | G5C C6U G8C C9U U10C | 2.2
80 | G5A U7C G8A U10C A30C | 2.51
81 | G5C C6G U7C U10C A20G G21A | 3.62
82 | G5A U7C G8A U10C A29U A30G | 2.78
83 | G5C C6G U7C U10C C36G A37C | 1.47
